Measured values published in PMC5430726, “Grb2 carboxyl-terminal SH3 domain can bivalently associate with two ligands, in an SH3 dependent manner” (Scientific Reports, 2017).

Key:
[1] = biological target: T1, Grb2 C-terminal SH3 domain (SH3C), residues 155-217 (mouse, UniProt Q60631 155-217); experiment: ITC; free Grb2 SH3C in the cell (20 uM for the peptide, 40 uM for Vav) titrated with 280 uM SLP65 peptide or 600 uM Vav SH3N; 20 mM sodium phosphate, 100 mM NaCl, pH 6.0, 25 °C; one-site binding model; settings: both partners purified
T1 construct: Uniformly 15N or 15N,13C labelled in the NMR titrations; monomer by glutaraldehyde cross-linking and SEC; also called Grb2 SH3C; Grb2 CSH3 domain; source: E. coli, purified (Ni2+-NTA chromatography); not shown: His tag, N-terminal, cleaved

[2] = biological target: T1, Grb2 C-terminal SH3 domain (SH3C), …; experiment: ITC; SLP65 peptide titrated into the preformed Grb2 SH3C-Vav SH3N binary complex (gives Complex 1, Vav displaced); 20 mM sodium phosphate, 100 mM NaCl, pH 6.0, 25 °C; settings: both partners purified

T1 sequence (Q60631 155-217): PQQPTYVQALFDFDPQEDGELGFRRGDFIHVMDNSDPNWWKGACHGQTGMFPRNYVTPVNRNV

B1: SLP65 peptide Ace-EKAPMVNRSTKPNSSS-NH2 (residues 201-216 of mouse SLP65) (peptide)
peptide: Ac-EKAPMVNRSTKPNSSS-NH2
notes: SLP65, mouse, residues 201-216; also called synthetic peptide; source: synthetic peptide
B1 was tested. Which Kd [1] did it give?
Its Kd is 3.55 ± 0.2 µM.

What about the dH [1] of the same binder?
Its dH is -6.67 ± 0.15 kcal/mol.

What about the “stoichiometry N” value [1] of the same binder?
Its value is 0.87 ± 0.02.

What about the “Kd with Vav SH3N prebound to Grb2 SH3C (Vav displaced)” value [2] of the same binder?
The value was 33.3 ± 1.1 µM.

What about the “dH with Vav SH3N prebound to Grb2 SH3C (Vav displaced)” value [2] of the same binder?
Its value is -5.9 ± 0.04 kcal/mol.
